Series [1] deals with T1, Endonuclease III (Endo III) (Escherichia coli, UniProt P0AB83 1-211).
T1 sequence: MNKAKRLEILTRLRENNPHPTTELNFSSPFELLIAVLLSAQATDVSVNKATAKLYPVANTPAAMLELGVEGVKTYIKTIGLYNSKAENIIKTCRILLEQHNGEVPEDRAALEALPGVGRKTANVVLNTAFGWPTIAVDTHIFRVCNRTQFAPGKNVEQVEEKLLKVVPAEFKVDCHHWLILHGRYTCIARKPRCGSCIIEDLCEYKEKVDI
Nature of the series: EMSA.

Series [2] addresses T2, Endonuclease III (Endo III);XerC;XerD (Escherichia coli;Vibrio cholerae;Vibrio …, UniProt P0AB83;Q9KVL4;Q9KPE9 1-211;1-311;1-302, ||).
T2 sequence 1: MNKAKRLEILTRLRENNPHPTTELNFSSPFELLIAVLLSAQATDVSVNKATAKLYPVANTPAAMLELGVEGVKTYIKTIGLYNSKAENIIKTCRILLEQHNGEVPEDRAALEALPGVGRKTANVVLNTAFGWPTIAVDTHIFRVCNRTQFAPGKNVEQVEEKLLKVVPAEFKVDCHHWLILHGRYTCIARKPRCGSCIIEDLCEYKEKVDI
T2 sequence 2: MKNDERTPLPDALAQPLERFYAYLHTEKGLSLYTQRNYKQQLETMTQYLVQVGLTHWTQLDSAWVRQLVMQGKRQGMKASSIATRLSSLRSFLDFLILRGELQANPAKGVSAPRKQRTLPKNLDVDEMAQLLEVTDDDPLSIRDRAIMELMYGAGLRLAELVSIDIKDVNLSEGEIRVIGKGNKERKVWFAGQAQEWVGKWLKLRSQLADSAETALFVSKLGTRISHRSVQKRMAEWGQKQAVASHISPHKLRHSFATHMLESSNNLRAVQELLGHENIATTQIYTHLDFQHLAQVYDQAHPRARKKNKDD
T2 sequence 3: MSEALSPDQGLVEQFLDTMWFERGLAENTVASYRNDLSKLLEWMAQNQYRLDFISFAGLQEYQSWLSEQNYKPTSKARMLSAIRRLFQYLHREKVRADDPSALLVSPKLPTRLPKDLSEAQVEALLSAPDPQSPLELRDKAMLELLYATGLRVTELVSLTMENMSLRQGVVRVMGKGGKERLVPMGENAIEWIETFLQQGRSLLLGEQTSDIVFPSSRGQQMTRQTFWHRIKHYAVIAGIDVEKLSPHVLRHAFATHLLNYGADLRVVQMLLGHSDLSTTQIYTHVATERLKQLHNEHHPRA
Nature of the series: footprinting.

Series [3] has as its target T3, XerC;XerD (Vibrio cholerae;Vibrio cholerae, UniProt Q9KVL4;Q9KPE9 1-311;1-302, |).
T3 sequence 1: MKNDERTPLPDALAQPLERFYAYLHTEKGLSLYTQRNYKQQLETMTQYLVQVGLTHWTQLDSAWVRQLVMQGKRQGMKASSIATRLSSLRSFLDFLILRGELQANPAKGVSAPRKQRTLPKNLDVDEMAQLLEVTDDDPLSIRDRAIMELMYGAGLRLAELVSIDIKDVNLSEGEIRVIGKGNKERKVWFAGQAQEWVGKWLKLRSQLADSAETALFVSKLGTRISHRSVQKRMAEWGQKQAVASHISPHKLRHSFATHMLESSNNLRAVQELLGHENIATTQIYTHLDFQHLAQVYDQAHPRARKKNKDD
T3 sequence 2: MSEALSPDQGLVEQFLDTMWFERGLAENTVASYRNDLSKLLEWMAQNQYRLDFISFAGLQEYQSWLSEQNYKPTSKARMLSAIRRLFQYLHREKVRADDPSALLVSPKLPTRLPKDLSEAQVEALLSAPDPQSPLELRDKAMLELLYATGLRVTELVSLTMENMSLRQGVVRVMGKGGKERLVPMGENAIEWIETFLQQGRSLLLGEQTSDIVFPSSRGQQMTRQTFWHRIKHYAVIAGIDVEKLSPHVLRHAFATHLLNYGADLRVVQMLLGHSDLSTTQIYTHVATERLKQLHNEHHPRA
The series is described as follows: footprinting.

Series [4] concerns the target T1, Endonuclease III (Endo III). Nature of the series: competition.

B1: attP(+)/dif1 pseudo-HJ (structured_DNA)
DNA 1: GATCCGTGATCACGCTGAACGCGTTTTAGCAGTGCGCATTATGTGGCGCGGCATTATGTTGAGGGGCCTAACGCCTAAAGCGGCCGCCTA
DNA 2: ATCGTAGGCGGCCGCTTTAGGCGTTAGGCCCCGTAACATAATGGCGTATAATACGCATTCGACCGTTGCCGGATCCG
DNA 3: CGATCGGATCCGGCAACGGTCGAGTGCGTATTATGTATGTTATGTTAAATGACATCCTGAGATCTCGA
DNA 4: TCGATCGAGATCTCAGGATGTCATTTAACATAACATACATAATGCGCACTGCTAAAACGCGTTCAGCGTGATCACG
Turning to B1, the binding result in series [1], in series [2] and in series [3] was “binds” each time.

B2: dif1/dif1 HJ (structured_DNA)
DNA 1: GATCCGTGATCACGCTGAACGCGTTTTAGCAGTGCGCATTATGTATGTTATGTTAAATGGCCTAACGCCTAAAGCGGCCGCCTA
DNA 2: ATCGTAGGCGGCCGCTTTAGGCGTTAGGCCATTTAACATAACATACATAATGCGCACTCGACCGTTGCCGGATCCG
DNA 3: CGATCGGATCCGGCAACGGTCGAGTGCGCATTATGTATGTTATGTTAAATGACATCCTGAGATCTCGA
DNA 4: TCGATCGAGATCTCAGGATGTCATTTAACATAACATACATAATGCGCACTGCTAAAACGCGTTCAGCGTGATCACG
On to B2, for which the binding result in series [4] is reported as “binds”.

For the origin of these results see article PMC3442271.
